Reference: publication PMC13128273, “The interferon-stimulated gene product HERC5 inhibits human LINE-1 retrotransposition with an ISGylation-independent mechanism” (Nucleic Acids Research, 2026)

Target: L1.3 ORF2p-3×FLAG (human, UniProt O00370 1-1275)
Test: co-IP; ORF2p-3×FLAG precipitated with anti-FLAG from lysate of HEK293T cells transfected with pTMF3 together with pCMV-3Tag-9, HERC5 or MOV10 vector; ORF1p-T7 detected by anti-T7 blot, band intensities given as ORF1p/ORF2p ratio relative to the control; pTMH3 as negative control
Details: partners not purified

Chain of L1.3 ORF2p-3×FLAG (O00370 whole entry): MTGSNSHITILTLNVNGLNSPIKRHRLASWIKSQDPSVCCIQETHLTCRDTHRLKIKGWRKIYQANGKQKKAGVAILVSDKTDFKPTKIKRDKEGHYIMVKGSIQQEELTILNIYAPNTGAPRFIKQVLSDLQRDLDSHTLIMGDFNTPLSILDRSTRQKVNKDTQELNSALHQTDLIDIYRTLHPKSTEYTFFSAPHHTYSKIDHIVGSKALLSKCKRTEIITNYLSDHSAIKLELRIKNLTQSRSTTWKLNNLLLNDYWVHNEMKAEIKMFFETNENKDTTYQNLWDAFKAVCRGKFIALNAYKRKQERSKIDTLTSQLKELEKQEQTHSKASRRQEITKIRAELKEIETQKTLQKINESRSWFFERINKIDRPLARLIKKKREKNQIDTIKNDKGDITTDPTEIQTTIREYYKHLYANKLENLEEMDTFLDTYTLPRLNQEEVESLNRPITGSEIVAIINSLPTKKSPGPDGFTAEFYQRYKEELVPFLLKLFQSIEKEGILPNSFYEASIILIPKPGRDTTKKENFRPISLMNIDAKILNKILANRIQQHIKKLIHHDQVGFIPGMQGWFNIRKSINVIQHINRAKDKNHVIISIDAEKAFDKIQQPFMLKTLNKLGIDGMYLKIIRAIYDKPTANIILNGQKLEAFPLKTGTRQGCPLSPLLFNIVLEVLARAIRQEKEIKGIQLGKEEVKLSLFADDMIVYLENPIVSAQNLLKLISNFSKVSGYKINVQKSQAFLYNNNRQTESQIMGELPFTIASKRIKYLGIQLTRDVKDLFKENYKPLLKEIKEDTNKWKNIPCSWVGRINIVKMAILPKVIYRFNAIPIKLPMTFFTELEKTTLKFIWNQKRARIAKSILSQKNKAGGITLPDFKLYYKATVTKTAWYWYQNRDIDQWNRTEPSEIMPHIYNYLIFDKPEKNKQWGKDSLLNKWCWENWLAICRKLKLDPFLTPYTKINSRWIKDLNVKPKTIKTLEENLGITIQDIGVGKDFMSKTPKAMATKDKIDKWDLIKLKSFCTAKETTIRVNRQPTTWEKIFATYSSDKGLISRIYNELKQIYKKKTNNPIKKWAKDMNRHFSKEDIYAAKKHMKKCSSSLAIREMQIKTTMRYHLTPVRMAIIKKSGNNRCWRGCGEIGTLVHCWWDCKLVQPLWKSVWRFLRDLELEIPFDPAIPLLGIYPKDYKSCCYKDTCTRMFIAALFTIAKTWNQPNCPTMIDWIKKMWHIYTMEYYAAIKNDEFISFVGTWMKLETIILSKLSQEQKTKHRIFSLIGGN

B1: L1.3 ORF1p-T7 (natural protein)
chain: MGKKQNRKTGNSKTQSASPPPKERSSSPATEQSWMENDFDELREEGFRRSNYSELREDIQTKGKEVENFEKNLEECITRITNTEKCLKELMELKTKARELREECRSLRSRCDQLEERVSAMEDEMNEMKREGKFREKRIKRNEQSLQEIWDYVKRPNLRLIGVPESDVENGTKLENTLQDIIQENFPNLARQANVQIQEIQRTPQRYSSRRATPRHIIVRFTKVEMKEKMLRAAREKGRVTLKGKPIRLTADLSAETLQARREWGPIFNILKEKNFQPRISYPAKLSFISEGEIKYFIDKQMLRDFVTTRPALKELLKEALNMERNNRYQPLQNHAKM
notes: ORF1p of the human LINE-1 element L1.3, expressed from the full-length L1.3 in pTMF3 or pTMH3; residues counted from the first methionine of L1.3 ORF1p; From pTMH3 in the HERC5-3×FLAG IP and from pTMF3 in the ORF2p-3×FLAG IP; source: HEK293T, transfected, in lysate
decrease of the ORF1p/ORF2p ratio in the ORF2p-3×FLAG IP with HERC5 overexpression, against the empty vector: ~60%
